Measurements: paper PMC3544974 (Structure (London, England : 1993), 2012)

B1: HBeAg construct Cp(-10)149, C48A, C107A (natural protein)
chain: SKLCLGWLWGMDIDPYKEFGATVELLSFLPSDFFPSVRDLLDTAAALYRDALESPEHASPHHTALRQAILCWGDLMTLATWVGTNLEDPASRDLVVSYVNTNVGLKFRQLLWFHISALTFGRETVLEYLVSFGVWIRTPPAYRPPNAPILSTLPETTVV

Assays:
[1] = target: HBeAg used for crystallization: Cp(-10)149, C48A, C107A, G123A (Hepatitis B virus) (UniProt P03147); assay: crystal structure
AUC = target: the molecule itself; assay: AUC

Molecule	stoichiometry N [1]	stoichiometry N (AUC)
HBeAg used for crystallization: Cp(-10)149, C48A, C107A, G123A (from UniProt P03147 1-149) (natural protein)	2	–
B1	–	2
